Laboratory results: paper PMC10651130

Target: RapR-LIMK1-Flag (LIMK1 T508D with iFKBP inserted in place of E360, flanked by GPG linkers) (UniProt P53667)
Test: co-IP

Work on “TrkB-EGFP (tropomyosin receptor kinase B, EGFP-tagged) (from UniProt Q16620 32-822)” yielded a normalized binding to TrkB (500 nM rapamycin) of 98.6%.
